Results published in article doi:10.1101/2023.08.20.554024, “Structural framework for the understanding spectroscopic and functional signatures of the cyanobacterial Orange Carotenoid Protein families” (bioRxiv, 2023).

What was measured:
ΔNTE-SynOCP1(ECH) = molecular target: T1, ΔNTE-SynOCP1(ECH) (Synechocystis sp. PCC 6803, UniProt P74102 13-317); experiment: SEC; 10 μM OCP and 20 μM FRP pre-incubated in SEC buffer (20 mM Tris-HCl pH 7.6, 150 mM NaCl) for 15 min at room temperature; Superdex 200 Increase 5/150, 0.45 ml/min; profiles at 280 or 460 (or 500) nm, compared with algebraic sums of the single profiles; settings: both partners purified
T1 construct: Orange Carotenoid Protein (OCP1), Synechocystis sp; PCC 6803, Uniprot P74102, lacking residues Met1-Phe12 (the N-terminal extension); also called ΔNTE mutant of SynOCP1; ΔNTE-SynOCP1 holoform; source: obtained earlier [24]
T1 sequence (looked up): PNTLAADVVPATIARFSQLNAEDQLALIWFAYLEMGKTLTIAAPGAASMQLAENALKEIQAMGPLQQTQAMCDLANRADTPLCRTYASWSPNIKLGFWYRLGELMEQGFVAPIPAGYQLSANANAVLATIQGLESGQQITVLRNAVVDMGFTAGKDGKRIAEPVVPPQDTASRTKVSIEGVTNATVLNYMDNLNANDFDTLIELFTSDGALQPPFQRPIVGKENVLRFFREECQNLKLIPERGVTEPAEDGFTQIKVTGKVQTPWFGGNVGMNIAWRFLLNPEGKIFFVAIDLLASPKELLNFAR

GcapOCP2(ECH) = GcapOCP2(ECH) (Gloeocapsa sp. PCC 7428); experiment: cell-based or functional assay

- binding result (ΔNTE-SynOCP1(ECH)): binds
- τ1/2 of the R-O transition of GcapOCP2 (OD550 after switching off blue LED) with a two-fold molar excess of SynFRP, 5-23 °C (203 to 250 s at 5°C, 12 to 16 s at 20°C) (GcapOCP2(ECH)): 250 s
B1: Fluorescence Recovery Protein from Synechocystis sp. PCC 6803 (natural protein, UniProt P74103 1-109, looked up)
chain: MLQTAEAPWSQAETQSAHALFRKAYQRELDGLLATVQAQASQITQIDDLWKLHDFLSAKRHEIDGKYDDRQSVIIFVFAQLLKEGLVQAEELTFLAADKQSKIKALARL
notes: Fluorescence Recovery Protein (FRP), Synechocystis sp; PCC 6803, Uniprot P74103; also called SynFRP; FRP; source: obtained in previous works [24,30] as electrophoretically homogeneous preparation devoid of tags
